From PMC9224512, “New Insights into the Determinants of Specificity in Human Type I Arginase: Generation of a Mutant That Is Only Active with Agmatine as Substrate” (International Journal of Molecular Sciences, 2022)
Substitutions are numbered along the chain they refer to. Numbers in names are those of the source.

What was measured:
[1] = substrate: N=C(N)NCCCCN; experiment: Kinetic and inhibition studies, Chimera A2; assay type: biochemical, human; settings: other: substrate = labelled compound, pH 9.5, 2 mM Mn2+
Protocol: (§1) Bacterial cultures were grown with shaking at 37 °C in Luria Broth media, in the presence of ampicillin (100 μg/mL). The wild-type and mutant human liver arginase cDNAs were directionally cloned into the pBluescript II KS(+) expression vector and then expressed in E. coli JM109, following induction with 1 mM isopropyl β-D-thiogalactopyranoside. The bacterial cells were disrupted by sonication on ice (5 × 30 s pulses), centrifuged for 20 min at 12,000× g, and the obtained supernatant was precipitated with ammonium sulfate (60% saturation). The pellet, collected by centrifugation at 12,000× g for 10 min, was re-suspended in buffer 5 mM Tris–HCl (pH 7.5) containing 2 mM MnCl2 and dialyzed for 6 h at 4 °C against the same buffer. After incubation with 5 mM MnCl2 for 10 min at 60 °C, the enzyme variants were purified as previously described [17]. The purity of the enzymes was evaluated by SDS–PAGE stained by Coomassie blue and immunodetection using an anti- rat arginase I antibody.
(§2) The single, double, triple, and chimera variants of human arginase type I were obtained by PCR, using the QuickChange site-directed mutagenesis kit (Stratagene, La Jolla, CA, USA); the plasmid pBluescript II KS(+) containing the human liver arginase cDNA was used as template. To obtain the chimeric species of human arginase type I, serial mutations were made in each loop to be modified, using as template DNA the wild-type arginase gene or the previous done mutation, subcloned in the plasmid pBluescript II KS (+).
(§3) All assays were initiated by adding the enzyme to a previously equilibrated buffer with the substrate in solution (the concentrations of used substrates were between 0.2–3 fold the Km). Urea was determined by a colorimetric method with α-isonitrosopropiophenone [38]. The protein concentrations were determined by the Bradford’s method, with bovine serum albumin as standard. Initial velocity and enzymatic inhibition experiments were performed in duplicate and repeated three times. […]

[2] = substrate: N=C(N)NCCCCN; experiment: Kinetic studies, E. coli agmatinase; assay type: biochemical; settings: other: substrate = labelled compound; n/a = no activity with the substrate; pH 9.5
Protocol: All assays were initiated by adding the enzyme to a previously equilibrated buffer with the substrate in solution (the concentrations of used substrates were between 0.2–3 fold the Km). Urea was determined by a colorimetric method with α-isonitrosopropiophenone. The protein concentrations were determined by the Bradford’s method, with bovine serum albumin as standard. Initial velocity and enzymatic inhibition experiments were performed in duplicate and repeated three times. The inhibitory patterns were initially determined by double reciprocal plots and re-plots of intercepts and slopes versus inhibitor concentrations. […] Velocities are expressed as μmol of urea/10 min.

[3] = substrate: N=C(N)NCCCCN; experiment: Kinetic and inhibition studies, S137C-N139D mutant; assay type: biochemical, human; settings: other: substrate = labelled compound, pH 9.5, 2 mM Mn2+
Protocol: (§4) All assays were initiated by adding the enzyme to a previously equilibrated buffer with the substrate in solution (the concentrations of used substrates were between 0.2–3 fold the Km). Urea was determined by a colorimetric method with α-isonitrosopropiophenone [38]. […] Initial velocity and enzymatic inhibition experiments were performed in duplicate and repeated three times. The inhibitory patterns were initially determined by double reciprocal plots and re-plots of intercepts and slopes versus inhibitor concentrations. […] Velocities are expressed as μmol of urea/10 min.

[4] = substrate: N=C(N)NCCCCN; experiment: Kinetic and inhibition studies, N130D-S137C mutant; assay type: biochemical, human; settings: other: substrate = labelled compound, pH 9.5, 2 mM Mn2+
Protocol: as §1, §2, §3

[5] = substrate: N=C(N)NCCCCN; experiment: Kinetic and inhibition studies, N130D-N139D mutant; assay type: biochemical, human; settings: other: substrate = labelled compound, pH 9.5, 2 mM Mn2+
Protocol: as §4

[6] = substrate: N=C(N)NCCCCN; experiment: Kinetic and inhibition studies, S137C mutant; assay type: biochemical, human; settings: other: substrate = labelled compound, pH 9.5, 2 mM Mn2+
Protocol: as §1, §2, §3

[7] = substrate: N=C(N)NCCCCN; experiment: Kinetic and inhibition studies, triple mutant; assay type: biochemical, human; settings: other: substrate = labelled compound, pH 9.5, 2 mM Mn2+
Protocol: as §4

[8] = substrate: N=C(N)NCCCCN; experiment: Kinetic and inhibition studies, N139D mutant; assay type: biochemical, human; settings: other: substrate = labelled compound, pH 9.5, 2 mM Mn2+
Protocol: as §1, §2, §3

[9] = substrate: N=C(N)NCCCCN; experiment: Kinetic and inhibition studies, N130D mutant; assay type: biochemical, human; settings: other: substrate = labelled compound, pH 9.5, 2 mM Mn2+
Protocol: as §1, §2, §3

B1: Chimera A2 (I129T/N130Y/T131A+∆ P132-T134) of human arginase type I (Homo sapiens; DEL129-131/I129T/L133Y/N130Y/P132T/T134A) (protein)
chain: MSAKSRTIGIIGAPFSKGQPRGGVEEGPTVLRKAGLLEKLKEQECDVKDYGDLPFADIPNDSPFQIVKNPRSVGKASEQLAGKVAEVKKNGRISLVLGGDHSLAIGSISGHARVHPDLGVIWVDAHTDTYATTSGNLHGQPVSFLLKELKGKIPDVPGFSWVTPCISAKDIVYIGLRDVDPGEHYILKTLGIKYFSMTEVDRLGIGKVMEETLSYLLGRKKRPIHLSFDVDGLDPSFTPATGTPVVGGLTYREGLYITEEIYKTGLLSGLDIMEVNPSLGKTPEEVTRTVNTAVAITLACFGLAREGNHKPIDYLNPPK
notes: made in house; host or cells: E. coli JM109
Km [1]: 6000 ± 1000 µM
kcat [1]: 1.1 ± 0.2 s⁻¹
kcat/Km [1]: 180 M⁻¹ s⁻¹

B2: E. coli agmatinase (Escherichia coli K-12) (protein)
chain: MSTLGHQYDNSLVSNAFGFLRLPMNFQPYDSDADWVITGVPFDMATSGRAGGRHGPAAIRQVSTNLAWEHNRFPWNFDMRERLNVVDCGDLVYAFGDAREMSEKLQAHAEKLLAAGKRMLSFGGDHFVTLPLLRAHAKHFGKMALVHFDAHTDTYANGCEFDHGTMFYTAPKEGLIDPNHSVQIGIRTEFDKDNGFTVLDACQVNDRSVDDVIAQVKQIVGDMPVYLTFDIDCLDPAFAPGTGTPVIGGLTSDRAIKLVRGLKDLNIVGMDVVEVAPAYDQSEITALAAATLALEMLYIQAAKKGE
Km [2]: 1100 µM
kcat [2]: 120 s⁻¹
kcat/Km [2]: 110000 M⁻¹ s⁻¹

B3: human arginase type I S137C-N139D (Homo sapiens; N139D/S137C) (protein)
chain: MSAKSRTIGIIGAPFSKGQPRGGVEEGPTVLRKAGLLEKLKEQECDVKDYGDLPFADIPNDSPFQIVKNPRSVGKASEQLAGKVAEVKKNGRISLVLGGDHSLAIGSISGHARVHPDLGVIWVDAHTDINTPLTTTCGDLHGQPVSFLLKELKGKIPDVPGFSWVTPCISAKDIVYIGLRDVDPGEHYILKTLGIKYFSMTEVDRLGIGKVMEETLSYLLGRKKRPIHLSFDVDGLDPSFTPATGTPVVGGLTYREGLYITEEIYKTGLLSGLDIMEVNPSLGKTPEEVTRTVNTAVAITLACFGLAREGNHKPIDYLNPPK
notes: as for B1
Km [3]: 900 µM
kcat [3]: 1.1 s⁻¹
kcat/Km [3]: 1200 M⁻¹ s⁻¹

B4: human arginase type I N130D-S137C (Homo sapiens; N130D/S137C) (protein)
chain: B3 chain with N130D, D139N
notes: as for B1
Km [4]: 1700 µM
kcat [4]: 2.3 s⁻¹
kcat/Km [4]: 1300 M⁻¹ s⁻¹

B5: human arginase type I N130D-N139D (Homo sapiens; N130D/N139D) (protein)
chain: B3 chain with N130D, C137S
notes: as for B1
Km [5]: 1100 µM
kcat [5]: 1.6 s⁻¹
kcat/Km [5]: 1400 M⁻¹ s⁻¹

B6: human arginase type I S137C (Homo sapiens; S137C) (protein)
chain: B3 chain with D139N
notes: as for B1
Km [6]: 7500 µM
kcat [6]: 1.8 s⁻¹
kcat/Km [6]: 240 M⁻¹ s⁻¹

B7: human arginase type I N130D-S137C-N139D (Homo sapiens; N130D/N139D/S137C) (protein)
chain: B3 chain with N130D
notes: as for B1
Km [7]: 1600 µM
kcat [7]: 0.9 s⁻¹
kcat/Km [7]: 560 M⁻¹ s⁻¹

B8: human arginase type I N139D (Homo sapiens; N139D) (protein)
chain: B3 chain with C137S
notes: as for B1
Km [8]: 5300 µM
kcat [8]: 1.3 s⁻¹
kcat/Km [8]: 250 M⁻¹ s⁻¹

B9: human arginase type I N130D (Homo sapiens; N130D) (protein)
chain: B3 chain with N130D, C137S, D139N
notes: as for B1
Km [9]: 1400 µM
kcat [9]: 3 s⁻¹
kcat/Km [9]: 2100 M⁻¹ s⁻¹
